Among the data in patent US20220363763A1 are EC50 values, retold here.

This assay addresses human D1-D2 truncated LAG-3-ECD-human IgG1 fusion protein (human) (UniProt P18627). The assay can be described thus: ELISA on coated ΔD1-D2 huFc; EC50 table has no unit, x axis Ab(nM); fit value of a flat curve. In general terms: An ELISA detects its analyte on a solid surface through an enzyme-linked reagent.

human D1-D2 truncated LAG-3-ECD-human IgG1 fusion protein (human), sequence (P18627 253-450): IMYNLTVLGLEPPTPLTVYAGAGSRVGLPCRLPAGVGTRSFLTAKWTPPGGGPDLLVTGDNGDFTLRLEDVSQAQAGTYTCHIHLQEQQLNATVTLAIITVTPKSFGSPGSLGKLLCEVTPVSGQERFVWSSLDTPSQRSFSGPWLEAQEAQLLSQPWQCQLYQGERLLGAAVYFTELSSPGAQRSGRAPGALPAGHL

B1: 147H mouse monoclonal antibody (antibody, V domains shown)
VH: QVQLQQSGSELVRPGTSVKISCKASGYTFTNYWLGWIKQRPGHGLEWIGDIYPGGDYINYNEKFKGKATLSADTSSSTAYMQLSSLTSEDSAVYFCARPNLPGDYWGQGTSVTVSS
VL: DIVMTQAAFSNPVTLGTSASISCRSSKSLLHSNGITYLYWYLQKPGQSPQLLIYQVSNLASGVPGRFSGSGSGTDFTLRISRVEAEDVGVYYCAQNLELPWTFGGGTKLEIK
Take B1: the EC50 (in general, the concentration needed to bring the measured effect to its halfway point) turned out to be 2.62 nM.
